The results in this text go back to US20030191083.

In this data set the target is T1, RNase P protein (SPP, SP protein) (Staphylococcus aureus) (UniProt A8YYS2).
T1 sequence: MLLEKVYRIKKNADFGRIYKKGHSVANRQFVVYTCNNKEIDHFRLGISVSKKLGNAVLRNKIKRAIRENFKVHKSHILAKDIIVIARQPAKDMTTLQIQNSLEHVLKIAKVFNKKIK
The experiment in a line: filter.

For orientation: Kd means the constant that tells how readily two partners part at equilibrium. For “GUUCUGAUAUUUUGGGUAAUCGCUAUAUUAUAUAGAGGAAAGUCCAUGCUCACACAGUCUGAGAUGAUUGUAGUGUUCGUGCUUGAUGAAACAAUAAAUCAAGGCAUUAAUUUGACGGCAAUGAAAUAUCCUAAGUCUUUCGAUAUGGAUAGAGUAAUUUGAAAGUGCCACAGUGACGUAGCUUUUAUAGAAAUAUAAAAGGUGGAACGCGGUAAACCCCUCGAGUGAGCAAUCCAAAUUUGGUAGGAGCACUUGUUUAACGGAAUUCAACGUAUAAACGAGACACACUUCGCGAAAUGAAGUGGUGUACGACAGAUGGUUAUCACCUGAGUACCAGUGUGACUAGUGCACGUGAUGAGUACGAUGGAACAGAACAUGGCUUAUAGAAAUAUCACUACUA [S. aureus RNase P RNA (SP RNA)]”, the Kd (20 mM K-Hepes pH 8.0, 0.01% NP40, 400 mM NH4OAc, 10 mM MgCl2, 5% glycerol, at least three experiments) came to 8 nM; the dissociation constant Kd (binding constant of the complex stated in summary, filter binding and gel shift, differs from 8 nM in p322) stood at 20 nM.
